T1: CD40L over-expressed on Expi293 cells (UniProt P29965 1-261, limits assumed)
T1 construct: whole, on cells; also called cytokine over-expressing Expi293 cells
T1 sequence (looked up): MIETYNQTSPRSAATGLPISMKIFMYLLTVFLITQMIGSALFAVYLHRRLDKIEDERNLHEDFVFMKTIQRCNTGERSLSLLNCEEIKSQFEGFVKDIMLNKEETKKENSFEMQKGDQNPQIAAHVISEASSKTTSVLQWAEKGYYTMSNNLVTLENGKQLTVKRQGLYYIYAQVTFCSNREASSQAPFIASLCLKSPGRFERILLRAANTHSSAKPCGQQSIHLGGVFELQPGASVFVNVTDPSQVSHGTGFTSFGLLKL

T2: IL1RL1 (UniProt Q01638 19-328, limits assumed)
T2 construct: SPR analyte
T2 sequence (looked up): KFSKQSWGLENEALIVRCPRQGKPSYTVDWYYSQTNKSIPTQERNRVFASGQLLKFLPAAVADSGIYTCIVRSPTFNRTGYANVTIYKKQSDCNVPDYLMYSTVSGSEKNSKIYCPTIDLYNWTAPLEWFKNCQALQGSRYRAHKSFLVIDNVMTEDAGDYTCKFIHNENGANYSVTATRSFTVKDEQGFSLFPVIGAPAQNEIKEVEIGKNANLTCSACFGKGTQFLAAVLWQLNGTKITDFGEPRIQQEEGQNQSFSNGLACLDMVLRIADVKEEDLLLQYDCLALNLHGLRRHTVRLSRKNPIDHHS


Experiments:
[1] = target: T1, CD40L over-expressed on Expi293 cells; test: flow cytometry, 100 nM antibody, CD40L-Expi293 vs parent Expi293 cells;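 further: ratio is the mean fluorescence intensity on CD40L-overexpressing Expi293 cells divided by the mean fluorescence intensity on parental Expi293 cells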
Procedure: All incubations and washes were in buffer containing PBS+1% BSA. MFI Ratio is defined by the mean fluorescence intensity (MFI) of the cytokine over-expressing Expi293 cell over the Expi293 parent cell. […] EC50 was calculated in GraphPad Prism.

IL1RL1 = target: T2, IL1RL1; test: SPR (Carterra LSA), antibody amine-coupled, 1:1 model;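 further: HC30M sensor chip at 25 °C in HBS-TE, analyte at rising concentrations in buffer containing 0.5 mg/mL BSA, 5 min association then 15 min dissociation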
Procedure: SPR experiments were performed on a Carterra LSA SPR biosensor equipped with a HC30M chip at 25° C. in HBS-TE. Antibodies were diluted to 10 μg/mL and amine-coupled to the sensor chip by EDC/NHS activation, followed by ethanolamine HCl quenching. Increasing concentrations of analyte were flowed over the sensor chip in HBS-TE with 0.5 mg/mL BSA with 5-minute association and 15-minute dissociation. Following each injection cycle the surface was regenerated with 2× 30-second injections of IgG elution buffer (Thermo). Data were analyzed in Carterra's Kinetics Tool software with 1:1 binding model.

100 nM FACS (MFI Ratio) [1]	Binder	other results
7.7 ratio	CD40L-137 (VHH) VHH: EVQLVESGGGLVQPGGSLRLSCAASGFTFSRYEMGWFRQAPGKEREFVAAIDDGGNTEYADSVKGRFTISADNSKNTAYLQMNSLKPEDTAVYYCAAVYVSTWGNGYDWGQGTLVTVSS	
6.9 ratio	CD40L-121 (VHH) VHH: EVQLVESGGGLVQPGGSLRLSCAASGRTFSTYAMGWFRQAPGKEREFVAVIYSSDGSTLYADSVKGRFTISADNSKNTAYLQMNSLKPEDTAVYYCAAEPYGSGSSLISEYDWGQGTLVTVSS	
6.7 ratio	CD40L-123 (VHH) VHH: EVQLVESGGGLVQPGGSLRLSCAASGRTFSIYAMGWFRQAPGKEREFVAVIYSSDGSTLYADSVKGRFTISADNSKNTAYLQMNSLKPEDTAVYYCAAEPYGSGSSLMSEYDWGQGTLVTVSS	
3.6 ratio	CD40L-117 (VHH) VHH: EVQLVESGGGLVQPGGSLRLSCAASGFIGNYHAMGWFRQAPGKEREFIAVIYWRDGSSLYADSVKGRFTISADNSKNTAYLQMNSLKPEDTAVYYCAAEPYGSGSSLISEYDWGQGTLVTVSS	
3.9 ratio	CD40L-132 (VHH) VHH: EVQLVESGGGLVQPGGSLRLSCAASGSIDRINAMGWFRQAPGKEREFIAVIYWRDGSSLYADSVKGRFTISADNSKNTAYLQMNSLKPEDTAVYYCAAEPYGSGSSLISEYDWGQGTLVTVSS	
7.4 ratio	CD40L-147 (VHH) VHH: EVQLVESGGGLVQPGGSLRLSCAASGFTFSRYEMGWFRQAPGKEREFVATITEGGARNYADSVKGRFTISADNSKNTAYLQMNSLKPEDTAVYYCASDHYDTDTKSDVYNWGQGTLVTVSS	
11.9 ratio	CD40L-127 (VHH) VHH: EVQLVESGGGLVQPGGSLRLSCAASGFTFSRYEMGWFRQAPGKERELVASITNGGSTYYADSVKGRFTISADNSKNTAYLQMNSLKPEDTAVYYCASDHYDTDTKSDVYNWGQGTLVTVSS	
7.3 ratio	CD40L-134 (VHH) VHH: EVQLVESGGGLVQPGGSLRLSCAASGFTFSRYEMGWFRQAPGKEREFVATITEGGARNYADSVKGRFTISADNSKNTAYLQMNSLKPEDTAVYYCAAEIGYYSGGTYFSSEAWGQGTLVTVSS	
1.6 ratio	CD40L-128 (VHH) VHH: EVQLVESGGGLVQPGGSLRLSCAASGLTFGTHVMGWFRQAPGKEREFVASIDWSGRSTYYADSVKGRFTISADNSKNTAYLQMNSLKPEDTAVYYCAADVWGLGYDWGQGTLVTVSS	
4.3 ratio	CD40L-140 (VHH) VHH: EVQLVESGGGLVQPGGSLRLSCAASGNIFSHNAMGWFRQAPGKEREFVASMRGSGSTVYADSVKGRFTISADNSKNTAYLQMNSLKPEDTAVYYCAKSVYGDYIFDYWGQGTLVTVSS	
8.3 ratio	CD40L-143 (VHH) VHH: EVQLVESGGGLVQPGGSLRLSCAASGRTFSSYDMGWFRQAPGKEREFVAAIDASGGFTEYADSVKGRFTISADNSKNTAYLQMNSLKPEDTAVYYCASDHYDTDTKSDVYNWGQGTLVTVSS	
12.1 ratio	CD40L-131 (VHH) VHH: EVQLVESGGGLVQPGGSLRLSCAASGFTYGNYDMGWFRQAPGKEREFVAAIYPSGRNAYYADSVKGRFTISADNSKNTAYLQMNSLKPEDTAVYYCASDHYDTDTKSDVYNWGQGTLVTVSS	
22.4 ratio	CD40L-136 (VHH) VHH: EVQLVESGGGLVQPGGSLRLSCAASGFTFSDYDMGWFRQAPGKEREFVAAISMSGEDAAYADSVKGRFTISADNSKNTAYLQMNSLKPEDTAVYYCASDHYDTDTKSDVYNWGQGTLVTVSS	
5.1 ratio	CD40L-138 (VHH) VHH: EVQLVESGGGLVQPGGSLRLSCAASGFTFGNYDMGWFRQAPGKEREFVAVIDTNGGLIAYADSVKGRFTISADNSKNTAYLQMNSLKPEDTAVYYCASDHYDTDTKSDVYNWGQGTLVTVSS	
12.5 ratio	CD40L-148 (VHH) VHH: EVQLVESGGGLVQPGGSLRLSCAASGFTFGNYDMGWFRQAPGKERELVAAISMSGDDAAYADSVKGRFTISADNSKNTAYLQMNSLKPEDTAVYYCASDHYDTDTKSDVYNWGQGTLVTVSS	

More lines, now with the values behind:

Binder	100 nM FACS (MFI Ratio) [1]	other results
CD40L-71 (VHH) VHH: EVQLVESGGGLVQPGGSLRLSCAASGSIDNIHAMGWFRQAPGKERKFVAVIYSSDGSTLYADSVKGRFTISADNSKNTAYLQMNSLKPEDTAVYYCAAEPYGSGSSLMSEYDWGQGTLVTVSS	5.9 ratio	
CD40L-78 (VHH) VHH: EVQLVESGGGLVQPGGSLRLSCAASGGTFSVFAMGWFRQAPGKEREFVAVIYSSDGSTLYADSVKGRFTISADNSKNTAYLQMNSLKPEDTAVYYCAAEPYGSGSSLISEYDWGQGTLVTVSS	8.2 ratio	
CD40L-109 (VHH) VHH: EVQLVESGGGLVQPGGSLRLSCAASGSILSINAMGWFRQAPGKEREFVAVIYSSDGSTLYADSVKGRFTISADNSKNTAYLQMNSLKPEDTAVYYCAAEPYGSGSSLMSEYDWGQGTLVTVSS	4.7 ratio	
CD40L-110 (VHH) VHH: EVQLVESGGGLVQPGGSLRLSCAASGSSGVINAMGWFRQAPGKEREFIAVIYWRDGSSLYADSVKGRFTISADNSKNTAYLQMNSLKPEDTAVYYCAAEPYGSGSSLISEYDWGQGTLVTVSS	4.9 ratio	
CD40L-97 (VHH) VHH: EVQLVESGGGLVQPGGSLRLSCAASGGTFGHYAMGWFRQAPGKEREFVAVIYSSDGSTLYADSVKGRFTISADNSKNTAYLQMNSLKPEDTAVYYCAAEPYGSGSSLISEYDWGQGTLVTVSS	8.9 ratio	
CD40L-83 (VHH) VHH: EVQLVESGGGLVQPGGSLRLSCAASGRTSNIYAMGWFRQAPGKEREFIAVIYWRDGSSLYADSVKGRFTISADNSKNTAYLQMNSLKPEDTAVYYCAAEPYGSGSSLISEYDWGQGTLVTVSS	15.7 ratio	
CD40L-81 (VHH) VHH: EVQLVESGGGLVQPGGSLRLSCAASGGIFGINAMGWFRQAPGKEREFIAVIYWRDGSSLYADSVKGRFTISADNSKNTAYLQMNSLKPEDTAVYYCAAEPYGSGSSLISEYDWGQGTLVTVSS	6 ratio	
CD40L-64 (VHH) VHH: EVQLVESGGGLVQPGGSLRLSCAASGFTFSRYEMGWFRQAPGKEREMVAAIDDGGNTEYADSVKGRFTISADNSKNTAYLQMNSLKPEDTAVYYCASDHYDTDTKSDVYNWGQGTLVTVSS	19.4 ratio	
CD40L-88 (VHH) VHH: EVQLVESGGGLVQPGGSLRLSCAASGFTFDDYDMGWFRQAPGKEREFVAAIDWSGGSTYYADSVKGRFTISADNSKNTAYLQMNSLKPEDTAVYYCASDHYDTDTKSDVYNWGQGTLVTVSS	26 ratio	
CD40L-86 (VHH) VHH: EVQLVESGGGLVQPGGSLRLSCAASGRTLTNYDMGWFRQAPGKEREFVAVINSGGGSTQYADSVKGRFTISADNSKNTAYLQMNSLKPEDTAVYYCASDHYDTDTKSDVYNWGQGTLVTVSS	8.9 ratio	
CD40L-85 (VHH) VHH: EVQLVESGGGLVQPGGSLRLSCAASGLNLSRLDMGWFRQAPGKEREFVAAVSGSGDDTYYADSVKGRFTISADNSKNTAYLQMNSLKPEDTAVYYCASDHYDTDTKSDVYNWGQGTLVTVSS	42.6 ratio	
CD40L-87 (VHH) VHH: EVQLVESGGGLVQPGGSLRLSCAASGFTFDDYDMGWFRQAPGKEREFVAAISMSGDDAAYADSVKGRFTISADNSKNTAYLQMNSLKPEDTAVYYCASDHYDTDTKSDVYNWGQGTLVTVSS	18.3 ratio	
CD40L-92 (VHH) VHH: EVQLVESGGGLVQPGGSLRLSCAASGFTFDDSDMGWFRQAPGKEREFVAAIDASGGFTEYADSVKGRFTISADNSKNTAYLQMNSLKPEDTAVYYCASDHYDTDTKSDVYNWGQGTLVTVSS	6.6 ratio	
IL1RL1-84 (Fc fusion, not shown: a dimerising Fc or GST, VHH-Fc on IgG2 Fc) VHH: EVQLVESGGGLVQPGGSLRLSCAASGGIISNYHMGWFRQAPGKEREGVAAIYSDGSTYYADRVKGRFTISADNSKNTAYLQMNSLKPEDTAVYYCAARPVRVDDISLPVGFDWGQGTLVTVSS		Kd (IL1RL1): ≤ 0.0673 nM; koff (IL1RL1): ≤ 1e-05 s⁻¹; kon (IL1RL1): 149000 M⁻¹ s⁻¹
